# Experimental data: patent US20230272119A1 (MARENGO THERAPEUTICS, published 2023)
# Experiments:
# [1] = target: T1, α-death receptor 5 heavy-LgBiT (SEQ ID NO: 137); assay: NanoBiT, HC-LgBiT:LC-SmBiT:competing LC 1:1:1; competing kappa LC m12 (SEQ ID NO: 103)
# T1 construct: VH-CH1-linker-LgBiT; germline VH3-20*01
# [2] = target: T1, α-death receptor 5 heavy-LgBiT (SEQ ID …); assay: NanoBiT, HC-LgBiT:LC-SmBiT:competing LC 1:1:1; competing kappa LC m18 (SEQ ID NO: 109)
# [3] = target: T1, α-death receptor 5 heavy-LgBiT (SEQ ID …); assay: NanoBiT, HC-LgBiT:LC-SmBiT:competing LC 1:1:1; competing kappa LC m33 (SEQ ID NO: 124)
# [4] = target: T1, α-death receptor 5 heavy-LgBiT (SEQ ID …); assay: NanoBiT, HC-LgBiT:LC-SmBiT:competing LC 1:1:1; competing kappa LC m36 (SEQ ID NO: 127)
# [5] = target: T2, α-IL23 heavy-LgBiT (SEQ ID NO: 140); assay: NanoBiT, HC-LgBiT:LC-SmBiT:competing LC 1:1:1; competing kappa LC m6 (SEQ ID NO: 97)
# T2 construct: VH-CH1-linker-LgBiT; germline VH5-51*01
# [6] = target: T2, α-IL23 heavy-LgBiT (SEQ ID NO: 140); assay: NanoBiT, HC-LgBiT:LC-SmBiT:competing LC 1:1:1; competing kappa LC m24 (SEQ ID NO: 115)
# [7] = target: T2, α-IL23 heavy-LgBiT (SEQ ID NO: 140); assay: NanoBiT, HC-LgBiT:LC-SmBiT:competing LC 1:1:1; competing kappa LC m27 (SEQ ID NO: 118)
# [8] = target: T2, α-IL23 heavy-LgBiT (SEQ ID NO: 140); assay: NanoBiT, HC-LgBiT:LC-SmBiT:competing LC 1:1:1; competing kappa LC m33 (SEQ ID NO: 124)
# [9] = target: T3, α-IL12β heavy-hCHIg_Hole_Cys (SEQ ID NO: 170) (Homo sapiens (Human), UniProt P0DOX5 1-449 = IgG part); assay: intact MS of papain-cleaved multispecific molecule 3; Fab of this pairing observed (observed mass, Da)
# T3 construct: full heavy chain, human Fc hole; Fab analysed after papain cleavage in the MS assay; germline VH3-33*01; also called HCP1 of multispecific molecules 3 and 9
# [10] = target: T4, α-CTLA4 heavy-hCHIg_Knob_Cys (SEQ ID NO: 168) (Homo sapiens (Human), UniProt P0DOX5 1-449 = IgG part); assay: intact MS of papain-cleaved multispecific molecule 3; Fab 'Kappa heavy chain/lambda light chain' not observed
# T4 construct: full heavy chain, human Fc knob; Fab analysed after papain cleavage in the MS assay; germline VH3-30*01; also called HCP2 of multispecific molecules 3, 4, 5, 9
# [11] = target: T5, α-CCR2 heavy-LgBiT (SEQ ID NO: 155); assay: NanoBiT, HC-LgBiT:LC-SmBiT:competing LC 1:1:1; competing kappa LC m24 (SEQ ID NO: 115)
# T5 construct: VH-CH1-linker-LgBiT; germline VH1-2*01
# [12] = target: T5, α-CCR2 heavy-LgBiT (SEQ ID NO: 155); assay: NanoBiT, HC-LgBiT:LC-SmBiT:competing LC 1:1:1; competing kappa LC m33 (SEQ ID NO: 124)
# [13] = target: T5, α-CCR2 heavy-LgBiT (SEQ ID NO: 155); assay: NanoBiT, HC-LgBiT:LC-SmBiT:competing LC 1:1:1; competing kappa LC m36 (SEQ ID NO: 127)
# [14] = target: T5, α-CCR2 heavy-LgBiT (SEQ ID NO: 155); assay: NanoBiT, HC-LgBiT:LC-SmBiT:competing LC 1:1:1; competing kappa LC m42 (SEQ ID NO: 133)
# [15] = target: T6, α-complement C5 heavy-LgBiT (SEQ ID NO: 152); assay: as above
# T6 construct: VH-CH1-linker-LgBiT; germline VH1-69*01
# [16] = target: T7, α-HER3 heavy-LgBiT (SEQ ID NO: 143); assay: NanoBiT, HC-LgBiT:LC-SmBiT:competing LC 1:1:1; competing kappa LC m6 (SEQ ID NO: 97)
# T7 construct: VH-CH1-linker-LgBiT; germline VH3-9*01
# [17] = target: T7, α-HER3 heavy-LgBiT (SEQ ID NO: 143); assay: NanoBiT, HC-LgBiT:LC-SmBiT:competing LC 1:1:1; competing kappa LC m12 (SEQ ID NO: 103)
# [18] = target: T7, α-HER3 heavy-LgBiT (SEQ ID NO: 143); assay: NanoBiT, HC-LgBiT:LC-SmBiT:competing LC 1:1:1; competing kappa LC m15 (SEQ ID NO: 106)
# [19] = target: T7, α-HER3 heavy-LgBiT (SEQ ID NO: 143); assay: NanoBiT, HC-LgBiT:LC-SmBiT:competing LC 1:1:1; competing kappa LC m21 (SEQ ID NO: 112)
# [20] = target: T7, α-HER3 heavy-LgBiT (SEQ ID NO: 143); assay: NanoBiT, HC-LgBiT:LC-SmBiT:competing LC 1:1:1; competing kappa LC m24 (SEQ ID NO: 115)
# [21] = target: T7, α-HER3 heavy-LgBiT (SEQ ID NO: 143); assay: NanoBiT, HC-LgBiT:LC-SmBiT:competing LC 1:1:1; competing kappa LC m27 (SEQ ID NO: 118)
# [22] = target: T7, α-HER3 heavy-LgBiT (SEQ ID NO: 143); assay: NanoBiT, HC-LgBiT:LC-SmBiT:competing LC 1:1:1; competing kappa LC m33 (SEQ ID NO: 124)
# [23] = target: T7, α-HER3 heavy-LgBiT (SEQ ID NO: 143); assay: NanoBiT, HC-LgBiT:LC-SmBiT:competing LC 1:1:1; competing kappa LC m36 (SEQ ID NO: 127)
# [24] = target: T7, α-HER3 heavy-LgBiT (SEQ ID NO: 143); assay: NanoBiT, HC-LgBiT:LC-SmBiT:competing LC 1:1:1; competing kappa LC m42 (SEQ ID NO: 133)
# [25] = target: T8, α-CCR2 heavy-LgBiT (SEQ ID NO: 158); assay: NanoBiT, HC-LgBiT:LC-SmBiT:competing LC 1:1:1; competing kappa LC m6 (SEQ ID NO: 97)
# T8 construct: VH-CH1-linker-LgBiT; germline VH3-7*01
# [26] = target: T8, α-CCR2 heavy-LgBiT (SEQ ID NO: 158); assay: NanoBiT, HC-LgBiT:LC-SmBiT:competing LC 1:1:1; competing kappa LC m9 (SEQ ID NO: 100)
# [27] = target: T8, α-CCR2 heavy-LgBiT (SEQ ID NO: 158); assay: NanoBiT, HC-LgBiT:LC-SmBiT:competing LC 1:1:1; competing kappa LC m12 (SEQ ID NO: 103)
# [28] = target: T8, α-CCR2 heavy-LgBiT (SEQ ID NO: 158); assay: NanoBiT, HC-LgBiT:LC-SmBiT:competing LC 1:1:1; competing kappa LC m15 (SEQ ID NO: 106)
# [29] = target: T8, α-CCR2 heavy-LgBiT (SEQ ID NO: 158); assay: NanoBiT, HC-LgBiT:LC-SmBiT:competing LC 1:1:1; competing kappa LC m18 (SEQ ID NO: 109)
# [30] = target: T8, α-CCR2 heavy-LgBiT (SEQ ID NO: 158); assay: NanoBiT, HC-LgBiT:LC-SmBiT:competing LC 1:1:1; competing kappa LC m24 (SEQ ID NO: 115)
# [31] = target: T8, α-CCR2 heavy-LgBiT (SEQ ID NO: 158); assay: NanoBiT, HC-LgBiT:LC-SmBiT:competing LC 1:1:1; competing kappa LC m42 (SEQ ID NO: 133)
binder,measurement,setting,value
"α-death receptor 5 light-SmBiT (SEQ ID NO: 138) (other, lambda light chain-linker-SmBiT; germline Vl3-19*01) light: SSELTQDPAVSVALGQTVRITCSGDSLRSYYASWYQQKPGQAPVLVIYGANNRPSGIPDRFSGSSSGNTASLTITGAQAEDEADYYCNSADSSGNHVVFGGGTKLTVLGQPKANPTVTLFPPSSEELQANKATLVCLISDFYPGAVTVAWKADGSPVKAGVETTKPSKQSNNKYAASSYLSLTPEQWKSHRSYSCQVTHEGSTVEKTVAPTECSGSSGGGGSGGGGSSGGVTGYRLFEEIL",Percent pairing,[1],100%
same,Percent pairing,[2],100%
same,Percent pairing,[3],100%
same,Percent pairing,[4],95%
"α-IL23 light-SmBiT (SEQ ID NO: 141) (other, lambda light chain-linker-SmBiT; germline Vl1-40*01) light: QSVLTQPPSVSGAPGQRVTISCTGSSSNIGSGYDVHWYQQLPGTAPKLLIYGNSKRPSGVPDRFSGSKSGTSASLAITGLQSEDEADYYCASWTDGLSLVVFGGGTKLTVLGQPKANPTVTLFPPSSEELQANKATLVCLISDFYPGAVTVAWKADGSPVKAGVETTKPSKQSNNKYAASSYLSLTPEQWKSHRSYSCQVTHEGSTVEKTVAPTECSGSSGGGGSGGGGSSGGVTGYRLFEEIL",Percent pairing,[5],96%
same,Percent pairing,[6],93%
same,Percent pairing,[7],91%
same,Percent pairing,[8],100%
"α-IL12β light (SEQ ID NO: 163) (other, unmodified lambda light chain; germline Vl1-44*01; also called LLCP of multispecific molecule 3) light: QSVLTQPPSVSGAPGQRVTISCSGSRSNIGSNTVKWYQQLPGTAPKLLIYYNDQRPSGVPDRFSGSKSGTSASLAITGLQAEDEADYYCQSYDRYTHPALLFGTGTKVTVLGQPKANPTVTLFPPSSEELQANKATLVCLISDFYPGAVTVAWKADGSPVKAGVETTKPSKQSNNKYAASSYLSLTPEQWKSHRSYSCQVTHEGSTVEKTVAPTECS",binding result,[9],binds
same,binding result,[10],no binding
"α-CCR2 light-SmBiT (SEQ ID NO: 156) (other, lambda light chain-linker-SmBiT; germline Vl10-54*01) light: LPVLTQPPSVSKGLRQTATLTCTGNSNNVGNQGAAWLQQHQGQPPKLLSYRNHNRPSGVSERFSPSRSGDTSSLTITGLQPEDEADYYCLAWDSSLRAFVFGTGTKLTVLGQPKANPTVTLFPPSSEELQANKATLVCLISDFYPGAVTVAWKADGSPVKAGVETTKPSKQSNNKYAASSYLSLTPEQWKSHRSYSCQVTHEGSTVEKTVAPTECSGSSGGGGSGGGGSSGGVTGYRLFEEIL",Percent pairing,[11],90%
same,Percent pairing,[12],80%
same,Percent pairing,[13],77%
same,Percent pairing,[14],100%
"α-complement C5 light-SmBiT (SEQ ID NO: 153) (other, lambda light chain-linker-SmBiT; germline Vl3-9*01) light: SYELTQPLSVSVALGQTARITCSGDSIPNYYVYWYQQKPGQAPVLVIYDDSNRPSGIPERFSGSNSGNTATLTISRAQAGDEADYYCQSFDSSLNAEVFGGGTKLTVLGQPKANPTVTLFPPSSEELQANKATLVCLISDFYPGAVTVAWKADGSPVKAGVETTKPSKQSNNKYAASSYLSLTPEQWKSHRSYSCQVTHEGSTVEKTVAPTECSGSSGGGGSGGGGSSGGVTGYRLFEEIL",Percent pairing,[15],79%
"α-HER3 light-SmBiT (SEQ ID NO: 144) (other, lambda light chain-linker-SmBiT; germline Vl3-19*01) light: SYELTQDPAVSVALGQTVRITCQGDSLRSYYASWYQQKPGQAPVLVIYGKNNRPSGIPDRFSGSTSGNSASLTITGAQAEDEADYYCNSRDSPGNQWVFGGGTKVTVLGGQPKANPTVTLFPPSSEELQANKATLVCLISDFYPGAVTVAWKADGSPVKAGVETTKPSKQSNNKYAASSYLSLTPEQWKSHRSYSCQVTHEGSTVEKTVAPTECSGSSGGGGSGGGGSSGGVTGYRLFEEIL",Percent pairing,[16],100%
same,Percent pairing,[17],80%
same,Percent pairing,[18],93%
same,Percent pairing,[19],100%
same,Percent pairing,[20],86%
same,Percent pairing,[21],90%
same,Percent pairing,[22],100%
same,Percent pairing,[23],100%
same,Percent pairing,[24],100%
"α-CCR2 light-SmBiT (SEQ ID NO: 159) (other, lambda light chain-linker-SmBiT; germline Vl10-54*01) light: QAGLTQPPSVSKGLRQTATLTCTGNSNNVGNQGAAWLQQHQGHPPKLLFYRNNNRASGISERLSASRSGNTASLTITGLQPEDEADYYCLTWDSSLSVVVFGGGTKLTVLGQPKANPTVTLFPPSSEELQANKATLVCLISDFYPGAVTVAWKADGSPVKAGVETTKPSKQSNNKYAASSYLSLTPEQWKSHRSYSCQVTHEGSTVEKTVAPTECSGSSGGGGSGGGGSSGGVTGYRLFEEIL",Percent pairing,[25],89%
same,Percent pairing,[26],99%
same,Percent pairing,[27],100%
same,Percent pairing,[28],98%
same,Percent pairing,[29],95%
same,Percent pairing,[30],97%
same,Percent pairing,[31],99%
